Test results as given in paper PMC5411712.

T1: SRF (rSRF) (UniProt P11831 1-508)
T1 sequence: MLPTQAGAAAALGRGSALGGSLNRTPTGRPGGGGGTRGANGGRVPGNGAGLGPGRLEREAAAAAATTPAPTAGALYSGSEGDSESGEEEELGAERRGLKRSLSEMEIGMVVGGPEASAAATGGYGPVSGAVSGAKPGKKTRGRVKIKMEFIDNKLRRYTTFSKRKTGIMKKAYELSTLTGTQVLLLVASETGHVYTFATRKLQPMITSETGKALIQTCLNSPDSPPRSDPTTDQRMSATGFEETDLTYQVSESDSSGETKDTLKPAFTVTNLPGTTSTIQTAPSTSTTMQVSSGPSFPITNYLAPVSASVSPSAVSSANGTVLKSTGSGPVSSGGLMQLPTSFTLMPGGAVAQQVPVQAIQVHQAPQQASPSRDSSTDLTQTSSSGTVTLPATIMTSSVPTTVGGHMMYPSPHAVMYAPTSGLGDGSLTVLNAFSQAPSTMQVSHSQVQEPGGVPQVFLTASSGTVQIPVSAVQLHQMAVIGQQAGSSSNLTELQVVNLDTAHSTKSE


Assays:
SRF (rSRF);PTEN (rPTEN) [1] = target: T2, SRF (rSRF);PTEN (rPTEN) (;, UniProt P11831;P60484 1-508;1-403, |); assay: EMSA; lower mobility complex on adding rPTEN; 10 mM Tris pH 8.0, 1 mM EDTA, 8% glycerol, 10 ul, ~150 ng fluorescein-labelled DNA, 1 h at room temperature; 4-20% Tris-glycine native gel, pH 8.3
SRF (rSRF) [2] = target: T1, SRF (rSRF); assay: EMSA; 10 mM Tris pH 8.0, 1 mM EDTA, 8% glycerol, 10 ul, ~150 ng fluorescein-labelled DNA, 1 h at room temperature; 4-20% Tris-glycine native gel, pH 8.3
PTEN (rPTEN) = PTEN (rPTEN) (UniProt P60484 1-403); assay: EMSA; rPTEN alone; 10 mM Tris pH 8.0, 1 mM EDTA, 8% glycerol, 10 ul, ~150 ng fluorescein-labelled DNA, 1 h at room temperature; 4-20% Tris-glycine native gel, pH 8.3
SRF (rSRF);PTEN (rPTEN) [3] = target: T2, SRF (rSRF);PTEN (rPTEN); assay: EMSA, supershift and western blot of EMSA; higher mobility complex than rSRF alone; supershifted by PTEN or SRF antibody; 10 mM Tris pH 8.0, 1 mM EDTA, 8% glycerol, 10 ul, ~150 ng fluorescein-labelled DNA, 1 h at room temperature; 4-20% Tris-glycine native gel, pH 8.3
SRF (rSRF) [4] = target: T1, SRF (rSRF); assay: EMSA; two bands at 1 ul rSRF; single lower mobility band at saturating 3 ul; 10 mM Tris pH 8.0, 1 mM EDTA, 8% glycerol, 10 ul, ~150 ng fluorescein-labelled DNA, 1 h at room temperature; 4-20% Tris-glycine native gel, pH 8.3

Binder	binding result (SRF (rSRF);PTEN (rPTEN) [1])	binding result (SRF (rSRF) [2])	binding result (PTEN (rPTEN))	binding result (SRF (rSRF);PTEN (rPTEN) [3])	binding result (SRF (rSRF) [4])
CArG B 20-bp probe (Acta2) (dsDNA) DNA 1: GAGGTCCCTATATGGTTGTG DNA 2: CACAACCATATAGGGACCTC	binds	binds			
CArG A+B 95-bp probe (Acta2) (dsDNA) DNA 1: AATTCTGGGGTGTATCTTGCCCTATATGGGATATCGCTCTGACCGTTAACTAGGACTAGCTGAGGGTAGCCTTGTTTGGCTGCATCTGTTTCTTTTCGGCTAGC DNA 2: GCTAGCCGAAAAGAAACAGATGCAGCCAAACAAGGCTACCCTCAGCTAGTCCTAGTTAACGGTCAGAGCGATATCCCATATAGGGCAAGATACACCCCAGAATT			no binding	binds	binds
